Measurements reported in US20130195871A1 (AbbVie / Abbott, published 2013).
One block for each binder: values may come before it.

Columns and labels:
[1] = target: T1, ErbB3 on the cell surface (human, UniProt P21860 20-1342); assay: flow cytometry on cells, 2 ug/mL, C-terminal VD;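 note: cells stained for 30 to 60 min on ice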
T1 construct: whole, on cells
Protocol: (§1) Stable cell lines overexpressing a cell-surface antigen of interest or human tumor cell lines were harvested from tissue culture flasks and resuspended in phosphate buffered saline (PBS) containing 5% fetal bovine serum (PBS/FBS). Prior to staining, human tumor cells were incubated on ice with (100 μl) human IgG at 5 μg/ml in PBS/FCS. 1-5×10⁵ cells were incubated with antibody or DVD-Ig (2 μg/mL) in PBS/FBS for 30-60 minutes on ice. […] After 30 minutes incubation on ice, cells were washed twice and resuspended in PBS/FBS. Fluorescence was measured using a Becton Dickinson FACSCalibur (Becton Dickinson, San Jose, Calif.).
(§2) The geometric mean is the n root of the multiplication product of n fluorescent signals (a1×a2×a3 . . . an). With log-transformed data the geometric mean is used to normalize the weighting of the data distribution.

EGFR on the cell surface [2] = target: T2, EGFR on the cell surface (human, UniProt P00533 25-1210); assay: flow cytometry on cells, 2 ug/mL, N-terminal VD;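 note: cells stained for 30 to 60 min on ice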
T2 construct: whole, on cells
Protocol: as §1, §2

[3] = target: T1, ErbB3 on the cell surface; assay: flow cytometry on cells, 2 ug/mL;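 note: cells stained for 30 to 60 min on ice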
Protocol: as §1, §2

[4] = target: T3, Recombinant Human MSP Receptor ECD-His tag (human, UniProt Q04912 25-957); assay: SPR (Biacore), N-terminal VD;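 note: capture of antibodies or DVD-Ig proteins on an anti-mouse IgG chip surface, recombinant antigen injected at 10–200 nM in HBS-EP running buffer at 25 °C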
T3 construct: extracellular domain; bought reagent; also called RON

[5] = target: T4, Recombinant Human ErbB3/FC Chimera-His tag (human, UniProt P21860 20-643); assay: SPR (Biacore), C-terminal VD;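 note: surface plasmon resonance with DVD-Ig proteins captured on an anti-IgG chip and recombinant antigen flowed over in HBS-EP buffer, Langmuir global fit, KD taken as koff/kon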
T4 construct: bought reagent
Protocol: The BIACORE assay (Biacore, Inc, Piscataway, N.J.) determined the affinity of antibodies or DVD-Ig proteins with kinetic measurements of on-rate and off-rate constants. Binding of antibodies or DVD-Ig proteins to a target antigen (for example, a purified recombinant target antigen) was determined by surface plasmon resonance-based measurements with a Biacore® 1000 or 3000 instrument (Biacore AB, Uppsala. Sweden) using running HBS-EP (10 mM HEPES [pH 7.4], 150 mM NaCl, 3 mM EDTA, and 0.005% surfactant P20) at 25° C. […] For example, approximately 5000 RU of goat anti-mouse IgG, (Fcγ), fragment specific polyclonal antibody (Pierce Biotechnology Inc, Rockford, Ill.) diluted in 10 mM sodium acetate (pH 4.5) was directly immobilized across a CM5 research grade biosensor chip using a standard amine coupling kit according to manufacturer's instructions and procedures at 25 μg/ml. Unreacted moieties on the biosensor surface were blocked with ethanolamine. Modified carboxymethyl dextran surface in flowcell 2 and 4 was used as a reaction surface. Unmodified carboxymethyl dextran without goat anti-mouse IgG in flow cell 1 and 3 was used as the reference surface. For kinetic analysis, rate equations derived from the 1:1 Langmuir binding model were fitted simultaneously to association and dissociation phases of all eight injections (using global fit analysis) with the use of Biaevaluation 4.0.1 software. Purified antibodies or DVD-Ig proteins were diluted in HEPES-buffered saline for capture across goat anti-mouse IgG specific reaction surfaces. Antibodies or DVD-Ig proteins to be captured as a ligand (25 μg/ml) were injected over reaction matrices at a flow rate of 5 μl/minute. The association and dissociation rate constants, kₒₙ (M⁻¹s⁻¹) and koff (s⁻¹) were determined under a continuous flow rate of 25 μl/minute. Rate constants were derived by making kinetic binding measurements at different antigen concentrations ranging from 10-200 nM. The equilibrium dissociation constant (M) of the reaction between antibodies or DVD-Ig proteins and the target antigen was then calculated from the kinetic rate constants by the following formula: KD=koff/kₒₙ. Binding was recorded as a function of time and kinetic rate constants were calculated.

[6] = target: T1, ErbB3 on the cell surface; assay: flow cytometry on cells, 2 ug/mL, N-terminal VD;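 note: cells stained for 30 to 60 min on ice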
Protocol: as §1, §2

EGFR on the cell surface [7] = target: T2, EGFR on the cell surface; assay: flow cytometry on cells, 2 ug/mL, C-terminal VD;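 note: cells stained for 30 to 60 min on ice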
Protocol: as §1, §2

- GEO MEAN [1]: 15
- GEO MEAN (EGFR on the cell surface [2]): 618
B1: DVD2294 (bispecific antibody)
VH: EVQLVESGGGLVQPGGSLRLSCAASGFSLTNYGVHWVRQAPGKGLEWLGVGWSGGNTDYNTPFTSRLTINKDNSKNTVYLQMNSLRAEDTAVYYCARALTWYDYEFAYWGQGTLVTVSSASTKGPEVQLLESGGGLVQPGGSLRLSCAASGFTFSHYVMAWVRQAPGKGLEWVSSISSSGGWTLYADSVKGRFTISRDNSKNTLYLQMNSLRAEDTAVYYCTRGLKMATIFDYWGQGTLVTVSS
VL: DILLTQSPGTLSLSPGERATLSCRASQSIYTNIHWYQQKPGQAPRLLIKYASESISGIPDRFSGSGSGTDFTLTISRLEPEDFAVYYCQQNLNWPTTFGQGTKLEIKRTVAAPQSALTQPASVSGSPGQSITISCTGTSSDVGSYNVVSWYQQHPGKAPKLIIYEVSQRPSGVSNRFSGSKSGNTASLTISGLQTEDEADYYCCSYAGSSIFVIFGGGTKVTVL
notes: DVD-Ig, outer AB400 / inner AB116

- GEO MEAN [3]: 127
B2: AB067 (antibody, V domains shown)
VH: EVQLLESGGGLVQPGGSLRLSCAASGFTFSHYVMAWVRQAPGKGLEWVSSISSSGGWTLYADSVKGRFTISRDNSKNTLYLQMNSLRAEDTAVYYCTRGLKMATIFDYWGQGTLVTVSS
VL: QSALTQPASVSGSPGQSITISCTGTSSDVGSYNVVSWYQQHPGKAPKLIIYEVSQRPSGVSNRFSGSKSGNTASLTISGLQTEDEADYYCCSYAGSSIFVIFGGGTKVTVLG
notes: parent antibody

- GEO MEAN [3]: 132
B3: AB062 (antibody, V domains shown)
VH: QVQLQQWGAGLLKPSETLSLTCAVYGGSFSGYYWSWIRQPPGKGLEWIGEINHSGSTNYNPSLKSRVTISVETSKNQFSLKLSSVTAADTAVYYCARDKWTWYFDLWGRGTLVTVSS
VL: not shown
notes: parent antibody

- GEO MEAN [3]: 128
B4: AB063 (antibody, V domains shown)
VH: EVQLVESGGGLVQPGGSLRLSCAASGFTFSIYSMNWVRQAPGKGLEWVSYISSSSSTIYYADSVKGRFTISRDNAKNSLYLQMNSLRDEDTAVYYCARDRGDFDAFDIWGQGTMVTVSS
VL: DIQMTQSPSSLSASVGDRVTITCQASQDITNYLNWYQQKPGKAPKLLIYDASNLETGVPSRFSGSGSGTDFTFTISSLQPEDIATYNCQQCENFPITFGQGTRLEIKR
notes: parent antibody

- Kd [4]: 4.9 nM
- binding result [5]: no binding (tested: 10-200 nM)
B5: DVD2334 (bispecific antibody)
VH: QVQLQESGPGLVKPSEILSLTCTVSGGSISSHYWSWVRQPPGKGLEWIGYIYYSGSTNYNPSLKSRVTISVDTSKNQFSLNLSSVTAADTAVYYCARIPNYYDRSGYYPGYWYFDLWGRGTLVTVSSASTKGPQVQLQQWGAGLLKPSETLSLTCAVYGGSFSGYYWSWIRQPPGKGLEWIGEINHSGSTNYNPSLKSRVTISVETSKNQFSLKLSSVTAADTAVYYCARDKWTWYFDLWGRGTLVTVSS
VL: QAVLTQPSSLSAPPGASASLTCTLRSGFNVDSYRISWYQQKPGSPPQYLLRYKSDSDKQQGSGVPSRFSGSKDASANAGILLISGLQSEDEADYYCMIWHSSAWVFGGGTKLTVLRQPKAAPDIEMTQSPDSLAVSLGERATINCRSSQSVLYSSSNRNYLAWYQQNPGQPPKLLIYWASTRESGVPDRFSGSGSGTDFTLTISSLQAEDVAVYYCQQYYSTPRTFGQGTKVEIK
notes: DVD-Ig, outer AB034 / inner AB062

- GEO MEAN [6]: 135
B6: DVD2293 (bispecific antibody)
VH: EVQLVESGGGLVQPGGSLRLSCAASGFTFSIYSMNWVRQAPGKGLEWVSYISSSSSTIYYADSVKGRFTISRDNAKNSLYLQMNSLRDEDTAVYYCARDRGDFDAFDIWGQGTMVTVSSASTKGPEVQLVESGGGLVQPGGSLRLSCAASGFSLTNYGVHWVRQAPGKGLEWLGVGWSGGNTDYNTPFTSRLTINKDNSKNTVYLQMNSLRAEDTAVYYCARALTWYDYEFAYWGQGTLVTVSS
VL: DIQMTQSPSSLSASVGDRVTITCQASQDITNYLNWYQQKPGKAPKLLIYDASNLETGVPSRFSGSGSGTDFTFTISSLQPEDIATYNCQQCENFPITFGQGTRLEIKRTVAAPDILLTQSPGTLSLSPGERATLSCRASQSIYTNIHWYQQKPGQAPRLLIKYASESISGIPDRFSGSGSGTDFTLTISRLEPEDFAVYYCQQNLNWPTTFGQGTKLEIK
notes: DVD-Ig, outer AB063 / inner AB400

- Kd [4]: 17 nM
- koff [4]: 0.00087 s⁻¹
- kon [4]: 51000 M⁻¹ s⁻¹
- binding result [5]: no binding (tested: 10-200 nM)
B7: DVD2322 (bispecific antibody)
VH: EVQLVQSGGGLVKPGGSLRLSCAASGFTFSSYAMHWVRQAPGKGLEWVAVISYDGSNKYYADSVKGRFTISRDNSKNTLYLQMNSLRAEDTAVYYCARFSGWPNNYYYYGMDVWGQGTTVTVSSASTKGPQVQLQQWGAGLLKPSETLSLTCAVYGGSFSGYYWSWIRQPPGKGLEWIGEINHSGSTNYNPSLKSRVTISVETSKNQFSLKLSSVTAADTAVYYCARDKWTWYFDLWGRGTLVTVSS
VL: DVVMTQSPLSLPVTPGEPASISCRSSQSLLHSNGFNYVDWYLQKPGQSPHLLIYFGSYRASGVPDRFSGSGSGTDFTLKISRVEAEDVGVYYCMQALQTPPWTFGQGTKVEIRRTVAAPDIEMTQSPDSLAVSLGERATINCRSSQSVLYSSSNRNYLAWYQQNPGQPPKLLIYWASTRESGVPDRFSGSGSGTDFTLTISSLQAEDVAVYYCQQYYSTPRTFGQGTKVEIK
notes: DVD-Ig, outer AB005 / inner AB062

- GEO MEAN [1]: 16.6
- GEO MEAN (EGFR on the cell surface [2]): 490
B8: DVD2296 (bispecific antibody)
VH: EVQLVESGGGLVQPGGSLRLSCAASGFSLTNYGVHWVRQAPGKGLEWLGVGWSGGNTDYNTPFTSRLTINKDNSKNTVYLQMNSLRAEDTAVYYCARALTWYDYEFAYWGQGTLVTVSSASTKGPQVQLQQWGAGLLKPSETLSLTCAVYGGSFSGYYWSWIRQPPGKGLEWIGEINHSGSTNYNPSLKSRVTISVETSKNQFSLKLSSVTAADTAVYYCARDKWTWYFDLWGRGTLVTVSS
VL: DILLTQSPGTLSLSPGERATLSCRASQSIYTNIHWYQQKPGQAPRLLIKYASESISGIPDRFSGSGSGTDFTLTISRLEPEDFAVYYCQQNLNWPTTFGQGTKLEIKRTVAAPDIEMTQSPDSLAVSLGERATINCRSSQSVLYSSSNRNYLAWYQQNPGQPPKLLIYWASTRESGVPDRFSGSGSGTDFTLTISSLQAEDVAVYYCQQYYSTPRTFGQGTKVEIK
notes: DVD-Ig, outer AB400 / inner AB062

- GEO MEAN (EGFR on the cell surface [7]): 317
- GEO MEAN [6]: 80
B9: DVD2295 (bispecific antibody)
VH: EVQLLESGGGLVQPGGSLRLSCAASGFTFSHYVMAWVRQAPGKGLEWVSSISSSGGWTLYADSVKGRFTISRDNSKNTLYLQMNSLRAEDTAVYYCTRGLKMATIFDYWGQGTLVTVSSASTKGPEVQLVESGGGLVQPGGSLRLSCAASGFSLTNYGVHWVRQAPGKGLEWLGVGWSGGNTDYNTPFTSRLTINKDNSKNTVYLQMNSLRAEDTAVYYCARALTWYDYEFAYWGQGTLVTVSS
VL: QSALTQPASVSGSPGQSITISCTGTSSDVGSYNVVSWYQQHPGKAPKLIIYEVSQRPSGVSNRFSGSKSGNTASLTISGLQTEDEADYYCCSYAGSSIFVIFGGGTKVTVLGQPKAAPDILLTQSPGTLSLSPGERATLSCRASQSIYTNIHWYQQKPGQAPRLLIKYASESISGIPDRFSGSGSGTDFTLTISRLEPEDFAVYYCQQNLNWPTTFGQGTKLEIK
notes: DVD-Ig, outer AB116 / inner AB400

- binding result [4]: no binding (tested: 10-200 nM)
- binding result [5]: no binding (tested: 10-200 nM)
B10: DVD2332 (bispecific antibody)
VH: QVQLQESGPGLVKPSEILSLTCTVSGGSISSHYWSWVRQPPGKGLEWIGYIYYSGSTNYNPSLKSRVTISVDTSKNQFSLNLSSVTAADTAVYYCARIPNYYDRSGYYPGYWYFDLWGRGTLVTVSSASTKGPEVQLLESGGGLVQPGGSLRLSCAASGFTFSHYVMAWVRQAPGKGLEWVSSISSSGGWTLYADSVKGRFTISRDNSKNTLYLQMNSLRAEDTAVYYCTRGLKMATIFDYWGQGTLVTVSS
VL: QAVLTQPSSLSAPPGASASLTCTLRSGFNVDSYRISWYQQKPGSPPQYLLRYKSDSDKQQGSGVPSRFSGSKDASANAGILLISGLQSEDEADYYCMIWHSSAWVFGGGTKLTVLRQPKAAPQSALTQPASVSGSPGQSITISCTGTSSDVGSYNVVSWYQQHPGKAPKLIIYEVSQRPSGVSNRFSGSKSGNTASLTISGLQTEDEADYYCCSYAGSSIFVIFGGGTKVTVL
notes: DVD-Ig, outer AB034 / inner AB116

- GEO MEAN [1]: 20.6
- GEO MEAN (EGFR on the cell surface [2]): 519
B11: DVD2292 (bispecific antibody)
VH: EVQLVESGGGLVQPGGSLRLSCAASGFSLTNYGVHWVRQAPGKGLEWLGVGWSGGNTDYNTPFTSRLTINKDNSKNTVYLQMNSLRAEDTAVYYCARALTWYDYEFAYWGQGTLVTVSSASTKGPEVQLVESGGGLVQPGGSLRLSCAASGFTFSIYSMNWVRQAPGKGLEWVSYISSSSSTIYYADSVKGRFTISRDNAKNSLYLQMNSLRDEDTAVYYCARDRGDFDAFDIWGQGTMVTVSS
VL: DILLTQSPGTLSLSPGERATLSCRASQSIYTNIHWYQQKPGQAPRLLIKYASESISGIPDRFSGSGSGTDFTLTISRLEPEDFAVYYCQQNLNWPTTFGQGTKLEIKRTVAAPDIQMTQSPSSLSASVGDRVTITCQASQDITNYLNWYQQKPGKAPKLLIYDASNLETGVPSRFSGSGSGTDFTFTISSLQPEDIATYNCQQCENFPITFGQGTRLEIK
notes: DVD-Ig, outer AB400 / inner AB063

- GEO MEAN (EGFR on the cell surface [7]): 106
- GEO MEAN [6]: 135
B12: DVD2297 (bispecific antibody)
VH: QVQLQQWGAGLLKPSETLSLTCAVYGGSFSGYYWSWIRQPPGKGLEWIGEINHSGSTNYNPSLKSRVTISVETSKNQFSLKLSSVTAADTAVYYCARDKWTWYFDLWGRGTLVTVSSASTKGPEVQLVESGGGLVQPGGSLRLSCAASGFSLTNYGVHWVRQAPGKGLEWLGVGWSGGNTDYNTPFTSRLTINKDNSKNTVYLQMNSLRAEDTAVYYCARALTWYDYEFAYWGQGTLVTVSS
VL: DIEMTQSPDSLAVSLGERATINCRSSQSVLYSSSNRNYLAWYQQNPGQPPKLLIYWASTRESGVPDRFSGSGSGTDFTLTISSLQAEDVAVYYCQQYYSTPRTFGQGTKVEIKRTVAAPDILLTQSPGTLSLSPGERATLSCRASQSIYTNIHWYQQKPGQAPRLLIKYASESISGIPDRFSGSGSGTDFTLTISRLEPEDFAVYYCQQNLNWPTTFGQGTKLEIK
notes: DVD-Ig, outer AB062 / inner AB400
